Measured values published in patent US12351610B2, “Interferon regulatory factor 5 inhibitors and uses thereof” (THE FEINSTEIN INSTITUTES FOR MEDICAL RESEARCH, priority 2019, dated 2025).
Entries after “also recorded” stand apart in the source; their conditions may differ.

Tests used:
[1] = test system: IRF5 nuclear translocation in monocytes (Mo) of PBMC from healthy donors; test: R848-induced IRF5 nuclear translocation in PBMC monocytes (CD14+), imaging flow cytometry; type: cell-based, human; conditions: 10 μM peptide pre-incubation 1 h, then 500 ng/mL R848 for 2 h
Procedure: (§1) Imaging Flow Cytometry. Imaging flow was performed as previously described on the Amnis Imagestream (19). Briefly, PBMCs from healthy donors were isolated and treated with inhibitor for 1 h, subsequently stimulated with R848 (500 ng/mL) or 2% SLE serum for 2 h, followed by staining for CD19 and CD14. PBMC were then fixed overnight in 1% paraformaldehyde and then permeabilized (19). Permeabilized cells were blocked in 5% BSA solution and stained for intracellular IRF5 (Abcam Catalog #: ab193245) or phospho(pSer462)IRF5 and FITC-conjugated secondary antibody (Abcam Catalog #: ab6896). Prior to acquisition, DRAQS dye was added at a 1:50 dilution. PBMC from SLE patients were only surface-stained and permeabilzed for intracellular IRF5 and DRAQS staining. Murine PBMC were stained similarly for intracellular IRF5 (Abcam Catolog #: 181553) (58) and APC-conjugated secondary antibody (BioLegend). Images were acquired on the ImageStream using the 40× objective. Nuclear translocation was quantified in the Amnis IDEAS software suite. Briefly, cells were first filtered through the brightfield area vs. brightfield aspect ratio gate to exclude non-viable and doublet events. Following which a similar gate of the DRAQS nuclear channel was used. This added an extra measure of stringency for cell viability. Images were gated on either CD14^+IRF5^+, CD19^+IRF5^+, or CD123^+BDCA2^+IRF5^+ events, followed by gating on images with a Gradient RMS of greater than 20 on the DRAQS channel. This was done to select images with a high level of clarity. Finally, IRF5 nuclear translocation was determined through use of the similarity score feature contrasting IRF5 staining with DRAQS staining. A similarity score≥2 was considered a translocation event.
Peptide mimetics inhibit TLR7-induced IRF5 nuclear translocation. We next sought to determine whether in vitro binding data would translate into IRF5 cellular inhibition. IRF5 is a key downstream mediator of TLR7-induced cytokine expression and TLR7 signaling has been implicated in SLE pathogenesis (2,44-47). We examined the ability of IRF5 peptide mimetics to inhibit IRF5 nuclear translocation following stimulation of PBMC with R848. […] For the initial screening, isolated PBMC from healthy donors were pre-incubated in the presence of mock (PBS), or 10 μM CPP1 (SEQ ID NO:4), N5-1 (SEQ ID NO:20), N5-2 (SEQ ID NO:17), N5-3 (SEQ ID NO:18) or C5-2 (SEQ ID NO:22) inhibitor for 1 h followed by stimulation with 500 ng/mL of R848 for 2 h. Cells were surface-stained with anti-CD14 (monocytes or Mo) and anti-CD19 (B cells) antibodies, then permeabilized and stained for intracellular IRF5 and DRAQ5. As expected, R848 induced significant IRF5 nuclear translocation in mock-incubated Mo (2) and B cells.

[2] = target: T1, human full-length recombinant IRF5 variant 5 (isoform V5) (Homo sapiens, UniProt Q13568); test: Surface plasmon resonance (SPR) binding of peptides to immobilized full-length recombinant IRF5; conditions: peptides 1 μM, IRF5 immobilized on chip, 25° C.
T1 construct: Full-length recombinant IRF5 protein (ab173024, Abcam) was immobilized onto a CMS series chip; purchased Abcam ab173024
T1 sequence (Q13568 1-514 isoform Q13568-2): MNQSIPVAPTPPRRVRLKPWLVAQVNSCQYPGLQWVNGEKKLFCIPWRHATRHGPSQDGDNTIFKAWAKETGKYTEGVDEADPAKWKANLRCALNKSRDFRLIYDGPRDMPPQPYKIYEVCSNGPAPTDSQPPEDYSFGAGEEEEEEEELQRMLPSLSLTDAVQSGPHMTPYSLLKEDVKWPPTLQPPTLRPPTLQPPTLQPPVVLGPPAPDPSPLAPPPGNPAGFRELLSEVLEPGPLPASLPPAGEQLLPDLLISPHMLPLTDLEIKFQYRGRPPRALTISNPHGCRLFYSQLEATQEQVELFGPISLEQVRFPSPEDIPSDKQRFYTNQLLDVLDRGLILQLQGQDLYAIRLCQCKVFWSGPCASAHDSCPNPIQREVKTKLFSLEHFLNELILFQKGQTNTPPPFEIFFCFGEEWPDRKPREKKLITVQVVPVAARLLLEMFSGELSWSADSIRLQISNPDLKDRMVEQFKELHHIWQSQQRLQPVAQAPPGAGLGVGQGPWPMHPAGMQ
Procedure: Surface Plasmon Resonance (SPR) Analysis. The Biacore T200 (GE Healthcare, UK) was used for real-time binding interaction studies. Full-length recombinant IRF5 protein (ab173024, Abcam) was immobilized onto a CMS series chip (GE Healthcare) by diluting to a concentration of 20 μg/mL in 10 mM acetate buffer (pH=5.0). A 1:1 mixture of N-hyrdoxysuccinimide and N-ethyl-N-(dimethyaminopropyl)carbodiimide was used to activate 2 flow-cells of the CMS chip. […] The sample flow-cell was injected with the diluted IRF5 at a flow rate of 10 μL/min by manual injection. The IRF5 injection was stopped when the SPR reached ˜490 RU. For binding of peptides to IRF5, the analytes (peptides) were diluted to 1 μM in 1×PBS+0.05% Tween20 buffer, filtered (0.22 μm) and injected over the IRF5 immobilized chip at a flow rate of 30 μL/min for 60 s at 25° C. with a dissociation time set for 1 min. Binding experiments were conducted in 1×PBS+0.05% Tween20 as the running buffer; at least 3 independent experiments were performed.
Peptides (1 μM) were tested for their ability to directly interact with human full-length recombinant IRF5 variant 5 (isoform V5) by surface plasmon resonance (SPR) analysis. DWEYS (SEQ ID NO:23) peptide served as a non-targeted control and CPP1 (SEQ ID NO:4) as a control for the cell permeable sequence. […] A shared similarity between N5-1 (SEQ ID NO:20) and N5-2 (SEQ ID NO:17) is their relatively stronger positive charge, as compared to the others (Table 1).
Human IRF5 contains two nuclear localization signals (NLS), one in the N-terminus and one in the C-terminus (27). N5-1 (SEQ ID NO:20) corresponds to the N-terminal NLS (PRRVRLK) (SEQ ID NO:24). To test whether any NLS is capable of binding to IRF5, we generated C5-2 (SEQ ID NO:22) that corresponds to the C-terminal NLS of IRF5 (PREKKLI) (SEQ ID NO:25) and examined binding by SPR.

[3] = test system: IRF5 nuclear translocation in B cells of PBMC from healthy donors; test: R848-induced IRF5 nuclear translocation in PBMC B cells (CD19+), imaging flow cytometry; type: cell-based, human; conditions: 10 μM peptide pre-incubation 1 h, then 500 ng/mL R848 for 2 h
Procedure: as §1, with “This added an extra measure of stringency for cell viability. Images were gated on either CD14^+IRF5^+, CD19^+IRF5^+, or CD123^+BDCA2^+IRF5^+ events, followed by gating on images with a Gradient RMS of greater than 20 on the DRAQS channel. This was done to select images with a high level of clarity.” left out, “A similarity score≥2 was considered a translocation event.” left out

Row | Substance | effect on R848-induced IRF5 nuclear translocation in Mo [1] | binding affinity for IRF5 [2] | effect on R848-induced IRF5 nuclear translocation in B cells [3]
1 | DRQIKIWFQNRRMKWKK (listed as Drosophila antennapedia) [CPP1, reference compound] | no significant effect | minimal binding affinity | no significant effect
2 | DRQIKIWFQNRRMKWKKEGVDEAD (cell penetrating and targeting sequence) [Peptide N5-5] | – | no affinity for IRF5 | –
3 | DRQIKIWFQNRRMKWKKGPRDMPP (cell penetrating and targeting sequence) [Peptide N5-4] | – | N5-3 (SEQ ID NO:18)>N5-4 (SEQ ID NO:19)>CPP1 (SEQ ID NO:4) | –
4 | DRQIKIWFQNRRMKWKKKSRDFRL (cell penetrating and targeting sequence) [Peptide N5-3] | significant reduction | binding to a slightly lesser extent; also recorded: directly bind to the full-length inactive IRF5 monomer | –
5 | DRQIKIWFQNRRMKWKKPRRVRLK (cell penetrating and targeting sequence) [Peptide N5-1] | significant reduction | strongest binding affinity for IRF5; also recorded: directly bind to the full-length inactive IRF5 monomer | –
6 | DRQIKIWFQNRRMKWKKRHATRHG (cell penetrating and targeting sequence) [Peptide N5-2] | significant reduction | strongest binding affinity for IRF5; also recorded: directly bind to the full-length inactive IRF5 monomer | –
7 | DWEYS (listed as Homo sapiens) [peptide that served as a non-targeted control, reference compound] | – | no affinity for IRF5 | –
